Source: the DeepSol protein solubility set

Test: soluble on expression in E. coli; label from the status in PepcDB or PDB records

| Sequence | soluble on expression in E. coli |
| --- | --- |
| MKSFCDNDDNNHSNTTNLLGFSLSSNMMKMGGRGGREAIYSSSTSSAATSSSSVPPQLVVGDNTSNFGVCYGSNPNGGIYSHMSVMPLRSDGSLCLMEALNRSSHSNHHQDSSPKVEDFFGTHHNNTSHKEAMDLSLDSLFYNTTHEPNTTTNFQEFFSFPQTRNHEEETRNYGNDPSLTHGGSFNVGVYGEFQQSLSLSMSPGSQSSCITGSHHHQQNQNQNHQSQNHQQISEALVETSVGFETTTMAAAKKKRGQEDVVVVGQKQIVHRKSIDTFGQRTSQYRGVTRHRWTGRYEAHLWDNSFKKEGHSRKGRQVYLGGYDMEEKAARAYDLAALKYWGPSTHTNFSAENYQKEIEDMKNMTRQEYVAHLRRKSSGFSRGASIYRGVTRHHQHGRWQARIGRVAGNKDLYLGTFGTQEEAAEAYDVAAIKFRGTNAVTNFDITRYDVDRIMSSNTLLSGELARRNNNSIVVRNTEDQTALNAVVEGGSNKEVSTPERLLSFPAIFALPQVNQKMFGSNMGGNMSPWTSNPNAELKTVALTLPQMPVFAAWADS | soluble |
| MKSIGTQILQTERLILRRFVESDAEAMFQNWASSAENLTYVTWDPHPDVEITRNSICNWVASYTNLNYYKWAICLKENPEQVIGDISIVKIDEADLSCEIGYVLGKAYWGNGMMTETLKAILDFCFTQAGFQKVRARYASLNPASGRVMEKAGMSYLQTIVNGVERKGYLADLIYYGISREEC | not soluble |
| MKSIIIAAPHSGSGKTTITLGIMECLKRRGLTVAPFKVGPDFIDPGYHRLICGRPSVNLDGWMCGGDFVQETFFHHAAGADIAVVEGVMGLFDGIGGVSDEGSTAEVAKLLGGPVVLVADAKGQARSVAALVKGFADFDPEVRVVGVIFNNVASDAHGRILREAVESHLPDVRVLGCIPRDESLSIPSRHLGLFTVDENPLPAEFLDHLVEVVREHVDLGMLWSVATLQGASDVKRRQDAPRREPVRIGVARDAAFCFVYEDNLRLLREAGAELVEFSPLADRELPEGVAGLYLPGGYPEVFADVLADNTPMKDAVRGAVVGEMPVYAECGGFIYLSRGVTGMRDDLESFNEFVGIFPVATLMLPRRKALGYREVELAADSIIGPVGAMARGHEFHYSEMEAMPPEVERLYRVRRAGIDLGTEGYRHRNCLASYVHIHFGSCPDMAEAFVNHCRNYAQRSHSLEHHHHHH | soluble |
| MKSILEQLSSITVVVADTGDLDAIKKFQPRDATTNPSLILAAAKNPDYIKLIDQALESSRKSLPAGFSESELIKETIDQVSVFFGKEILNLISGRVSTEVDARLSFDTEATVTKARKLINHYKSFGINKERILIKIASTWEGIKAAEILEKEGIKCNLTLLFNFCQAVACANAKITLISPFVGRILDWHKAKTGKDNFAGCEDPGVISVTKIYNYFKEKGFKTEVMGASFRNIDEIKELAGCDLLTIAPKFLDELNREEGELIKKLDEDTQSQSSIDYKFDEKDFRLSMLEDQMASEKLSEGITGFSKAIEELEELLLKRLSEINNQKLISTT | not soluble |
| MKSTMGIILTGGKNDRLKELAEMRSSTAVPIGGKYRVIDFVLSNMVNSGIKNIGVLTQYSFRSLMDHLGSGKEWDLDRRNEGLFIFPPYLAGEHSGWYQGSADAMYHNITFLKRSYEEYVLVAQGNCVYKMLFDDMLDYHIKKNADITIAYRDMSDFPREELSFMGVMTMDENRRVVDFKEKHKNPESTICSMGIYILKRELLIALLEECNSHGKYDFVKDVIINKLPTLNIYGYKFEGYWRNLNSINAYYRINMEMLNPEIRYQLFEQHGKVYTKVKDEPPAKYNEEAEVRNSIIADGCIIEGTVINSVLFRGVTIKRNAVVKDCIIMQDSVIEEDVDIESLIIDKNVYLSKGIRLKGMVNFPITIGKNAVI | not soluble |
| MKTAIIQLPGLNRDRDMVAALHHITGVEPLKIWQTESTIPDVDVIVIPGGFSYGDYLRCGAIGARTPVLQAVREKAQKGVTVIGICNGFQILLEAGLLPGTLMRNTSLKFVCREIKLEVVNVNTKFSRYYSKGQIICCPVAHHDGNYFVDSETLKQMEENEQIIFRYAENTNPNGSVNDIAGIINKAGNILGMMPHPENFIEPAHGGTDGRLFFQSALELAKG | not soluble |
| MKTHKTKNDLPSNAKSTVIGILNESLASVIDLALVTKQAHWNLKGPQFIAVHELLDTFRTQLDNHGDTIAERVVQLGGTALGSLQAVSSTTKLKAYPTDIYKIHDHLDALIERYGEVANMIRKAIDDSDEAGDPTTADIFTAASRDLDKSLWFLEAHVQEKS | soluble |
| MKTIGLLGGMSWESTIPYYRLINEGIKQRLGGLHSAQMLLHSVDFHEIEECQRRGEWDKTGDILAEAALGLQRAGAEGIVLCTNTMHKVADAIESRCTLPFLHIADATGRAITGAGMTRVALLGTRYTMEQDFYRGRLTEQFSINCLIPEADERAKINQIIFEELCLGQFTEASRAYYAQVIARLAEQGAQGVIFGCTEIGLLVPEERSVLPVFDTAAIHAEDAVAFMLS | not soluble |
| MKTLGYILMENGEKIDLEFFPEEAPKTVENFKKLAEQGFYDGVTFHRVIPGFVSQGGDPTGTGAGGPGYSIPCETDGNPHRHLVGSLSMAHAGRNTGGSQFFIVHEPQPHLDGVHTVFGKATSGIETVLNMRQGDVMKEVKVWEE | not soluble |
| MKTLLLLIPLVLTACGTLTGIPAHGGGKRFAVEQELVAASSRAAVKEMDLSALKGRKAALYVSVMGDQGSGNISGGRYSIDALIRGGYHNNPDSATRYSYPAYDTTATTKSDALSGVTTSTSLLNAPAAALTKNNGRKGERSAGLSVNGTGDYRNETLLANPRDVSFLTNLIQTVFYLRGIEVVPPEYADTDVFVTVDVFGTVRSRTELHLYNAETLKAQTKLEYFAVDRDSRKLLIAPKTAAYESQYQEQYALWMGPYSVGKTVKASDRLMVDFSDITPYGDTTAQNRPDFKQNNGKNPDVGNEVIRRRKGG | not soluble |
| MKTLTTERLILRLVSVDDAPFILELYNHPDFYRFVGDKQMRTDYEAVRYIKENMLRMEEKKGVSLLVVEDKQTKQPLGICGLVKRDTLNAYDIGYGFLPSAYGQGFAIEAAKAVIEYAKQAMQLSQLLAITNNDNIRSISLLKKLGFEFEHVEQQYDNGRTLELYTLQL | not soluble |
| MKTNREQEIYVERSFKPNNSTIQNLMDIERFILPHTSTSGVARLKMRVISWVGLQFYNY | soluble |
| MKTSIIILTCNNLRYSRRCIESIKKYTEKEAYEIIVVDNNSNDGTRNWLSKQKAIKKIYNNVNVGFPRGCNMGIKVACGSEVLLLNNDVVVTHNWLNNLRNCLYSSYEIGAVGPISNNCSNGQKINVRYDSIEDMHRFSKKYNISNKKKWTEVKRLIGFCFLIKRNVIRKVGLFDERFTPGNFEDDDYCIRMRKIGFRLMLCKDTFVHHYGSVSFKNTQYLKLLEVNKSKLEKKWGKSYDKLVLEHHHHHH | not soluble |
| MKTVRCSILGFGAIGQGVAEVLLMKKEYLESIGLEIIVVAVVDSRGATINPEGVDLADCLARKRTTGTVAIEKITGVEVIKSIDHDLVIETTPTNIVTGGAGLQNMFAAFEIGKDVITSNKGPLTLKYRELMEAAKVAGSSFRFEATVGGSMPIINLANEVLAGNRLKSIKGILNGTCNYILTRMLEERASYKDILAESMELGIAETDPTYDVDGIDTACKLVILANAIFGLNATYKDVEVTGITKITPEALEMAYERGHVIKLIGEVSRERIHVAPRLVPINHPLDVRGTLNVASIDTELAGEITVTGKGAGPVETASAILSDLIAIYGNQLEHHHHHH | soluble |
| MKVCLQCENFFSSADWACPSCGYQPERLNGIEAHASEFAHGGGGFKPEYFSELSRLEAGNFWFRARNELILWALRTYKPNAGAFLEVGCGTGFVLSGIARACPEIALNGSEIFLAGLFHAAKRVPSTHFMQMDARRVPFVEEFDAIGAFDVLEHIEEDETVLAQLHNAIKPSGVLLLTVPQHPRLWSASDDYACHVRRYTRVEIEQKVLTAGFELLRSSSFVTSLLPVMMLSRVLQKRKTKDFDPAGELKINAALNKVFYGLMMLELAGIRLGMNYPVGGSRLVVAKKQSALEHHHHHH | not soluble |
| MKVGGIEDRQLEALKRAALKACELSYSPYSHFRVGCSILTNNDVIFTGANVENASYSNCICAERSAMIQVLMAGHRSGWKCMVICGDSEDQCVSPCGVCRQFINEFVVKDFPIVMLNSTGSRSKVMTMGELLPMAFGPSHLN | soluble |
| MKVIAFVGKHNVGKTTLIERLIPKLKEKGYRVCYLKHDPKGHGVTDKEGSDTHRISKLVEKLALLSPNRVTYWEWGEFKPLEIVKRFFSDCDIVILEGFKWEEEIPKISVGKVDAKNVILTVDRETPLEDIIKVIESLEDMV | soluble |
